Results from patent US20240270821A1, “GIP/GLP1/GCG TRI-RECEPTOR AGONISTS AND USES THEREOF” (priority 2023, published 2024).

T1: human GIP receptor (human) (UniProt P48546)
T1 sequence (looked up): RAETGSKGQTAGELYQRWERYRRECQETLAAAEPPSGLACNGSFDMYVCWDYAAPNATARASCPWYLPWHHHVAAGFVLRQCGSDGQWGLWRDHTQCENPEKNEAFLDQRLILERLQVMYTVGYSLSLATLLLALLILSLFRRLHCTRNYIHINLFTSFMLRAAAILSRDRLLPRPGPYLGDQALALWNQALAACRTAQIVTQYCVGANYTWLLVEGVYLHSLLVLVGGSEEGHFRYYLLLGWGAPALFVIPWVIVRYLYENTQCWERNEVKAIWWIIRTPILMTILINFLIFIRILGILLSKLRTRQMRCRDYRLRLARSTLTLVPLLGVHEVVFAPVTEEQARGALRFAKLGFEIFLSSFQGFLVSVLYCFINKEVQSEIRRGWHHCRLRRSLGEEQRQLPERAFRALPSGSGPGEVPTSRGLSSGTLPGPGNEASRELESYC


Experiments:
Assay in all cases: cell-based or functional assay
[1] = target: T1, human GIP receptor (human)
hGLP-1R = hGLP-1R (Homo sapiens, UniProt P43220)
[2] = target: human glucagon receptor (human) (UniProt P47871)
Sequence of human glucagon receptor (human) (P47871 26-477): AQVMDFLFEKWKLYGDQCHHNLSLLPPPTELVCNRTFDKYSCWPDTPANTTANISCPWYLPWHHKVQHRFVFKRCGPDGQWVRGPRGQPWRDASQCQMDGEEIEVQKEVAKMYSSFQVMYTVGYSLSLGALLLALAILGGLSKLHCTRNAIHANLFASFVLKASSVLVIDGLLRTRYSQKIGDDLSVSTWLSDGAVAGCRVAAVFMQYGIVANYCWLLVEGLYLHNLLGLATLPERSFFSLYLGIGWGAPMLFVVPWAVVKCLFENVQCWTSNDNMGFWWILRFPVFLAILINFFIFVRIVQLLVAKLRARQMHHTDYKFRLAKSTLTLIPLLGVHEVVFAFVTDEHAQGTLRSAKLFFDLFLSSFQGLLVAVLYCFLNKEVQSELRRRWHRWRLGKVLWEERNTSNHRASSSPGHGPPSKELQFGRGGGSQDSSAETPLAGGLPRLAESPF

Sequence of hGLP-1R (P43220 24-463): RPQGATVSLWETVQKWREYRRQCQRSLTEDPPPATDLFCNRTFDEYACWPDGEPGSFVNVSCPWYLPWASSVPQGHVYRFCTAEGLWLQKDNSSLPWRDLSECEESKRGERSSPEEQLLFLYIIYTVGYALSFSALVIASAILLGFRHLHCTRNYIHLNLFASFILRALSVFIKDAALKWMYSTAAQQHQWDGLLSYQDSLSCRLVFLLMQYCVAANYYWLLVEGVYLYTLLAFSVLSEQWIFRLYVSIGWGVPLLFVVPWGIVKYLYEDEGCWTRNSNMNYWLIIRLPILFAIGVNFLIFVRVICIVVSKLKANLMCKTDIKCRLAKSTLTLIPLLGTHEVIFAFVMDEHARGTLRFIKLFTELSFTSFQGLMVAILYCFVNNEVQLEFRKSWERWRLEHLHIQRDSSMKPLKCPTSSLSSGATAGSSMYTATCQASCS

Binder	Relative cAMP EC50 [1] [nM]	cAMP Rel EC50, nM (1% HSA) [1] [nM]	Relative cAMP EC50 (hGLP-1R) [nM]	cAMP Rel EC50, nM (1% HSA) (hGLP-1R) [nM]	Relative cAMP EC50 [2] [nM]	cAMP Rel EC50, nM (1% HSA) [2] [nM]	cAMP Rel EC50, nM (in the presence of 1% HSA) [1] [nM]	cAMP Rel EC50, nM (in the presence of 1% HSA) (hGLP-1R) [nM]	cAMP Rel EC50, nM (in the presence of 1% HSA) [2] [nM]
YXQGTXTSDXXIXLDXKAQXEFIEXLVEGGPSSGAPPPSGSE (synthetic construct; SITE 2: note = 2-Aminoisobutyric Acid; SITE 6: note = alpha-methyl-2-fluoro-L-phenylalanine; SITE 10: note = 3-(4-Pyridyl)-L-alanine; SITE 11: note = alpha-methyl-L-serine; SITE 13: note = alpha-methyl-leucine; SITE 16: note = L-ornithine; SITE 17: note = Lysine is chemically mo) [Example 751]	0.00759	1.27	0.302	32.3	1.9	267	–	–	–
YXQGTXTSDXXIXLDXKAQXEFIEXLVEGGPSSGEPPPSGSE (synthetic construct; SITE 2: note = 2-Aminoisobutyric Acid; SITE 6: note = alpha-methyl-2-fluoro-L-phenylalanine; SITE 10: note = 3-(4-Pyridyl)-L-alanine; SITE 11: note = alpha-methyl-L-serine; SITE 13: note = alpha-methyl-leucine; SITE 16: note = L-ornithine; SITE 17: note = Lysine is chemically mo) [Example 752]	0.00689	1.74	0.274	44	1.9	228	–	–	–
YXQGTFTSDFSXXLDKKAQXAFIEYLLEAGPSSGAPPPSEG (not fully specified; synthetic construct; SITE 2: note = 2-Aminoisobutyric Acid; SITE 12: note = L-ornithine; SITE 13: note = alpha-methyl-leucine; SITE 17: note = Lysine is chemically modified through conjugation of the epsilon-amino group of the Lysine side chain with (2-[2-(2-Amino-ethoxy)-ethoxy]-acetyl)2-(gamma-Glu)) [Example 72]	0.202	–	1.86	–	5.48	–	56.7	683	1910
YXQGTXTSDXXIXLDXKAQXEFIEXLIEGGPSSGEPPPEGTGE (synthetic construct; SITE 2: note = 2-Aminoisobutyric Acid; SITE 6: note = alpha-methyl-2-fluoro-L-phenylalanine; SITE 10: note = 3-(4-Pyridyl)-L-alanine; SITE 11: note = alpha-methyl-L-serine; SITE 13: note = alpha-methyl-leucine; SITE 16: note = L-ornithine; SITE 17: note = Lysine is chemically mo) [Example 763]	0.00719	1.16	0.302	42.5	1.57	222	–	–	–
YXQGTXTSDXXIXLDXKYQXEFIEXLVEGGPSSGAPPPSGS (synthetic construct; SITE 2: note = 2-Aminoisobutyric Acid; SITE 6: note = alpha-methyl-2-fluoro-L-phenylalanine; SITE 10: note = 3-(4-Pyridyl)-L-alanine; SITE 11: note = alpha-methyl-L-serine; SITE 13: note = alpha-methyl-leucine; SITE 16: note = L-ornithine; SITE 17: note = Lysine is chemically mo) [Example 767]	0.00792	1.51	0.299	56.8	1.13	207	–	–	–
YXQGTXTSDXXIXLEXKAQXEFIEXLVEGGPSSGAPPPSGS (synthetic construct; SITE 2: note = 2-Aminoisobutyric Acid; SITE 6: note = alpha-methyl-2-fluoro-L-phenylalanine; SITE 10: note = 3-(4-Pyridyl)-L-alanine; SITE 11: note = alpha-methyl-L-serine; SITE 13: note = alpha-methyl-leucine; SITE 16: note = L-ornithine; SITE 17: note = Lysine is chemically mo) [Example 768]	0.0294	2.65	0.259	33.2	10.3	2270	–	–	–
YXQGTFTSDFSXXLDKKAQXAFIEYLLEGGPSSXAPPPGGS (not fully specified; synthetic construct; SITE 2: note = 2-Aminoisobutyric Acid; SITE 12: note = L-ornithine; SITE 13: note = alpha-methyl-leucine; SITE 17: note = Lysine is chemically modified through conjugation of the epsilon-amino group of the Lysine side chain with (gamma-Glu)2-CO-(CH2)16-CO2H; SITE 20: note = 2-Am) [Example 770]	0.244	18.2	3.91	240	5.37	390	–	–	–
YXQGTFTSDFSXXLDKKAQXAFIEYLLEGGPSSGXPPPGGS (not fully specified; synthetic construct; SITE 2: note = 2-Aminoisobutyric Acid; SITE 12: note = L-ornithine; SITE 13: note = alpha-methyl-leucine; SITE 17: note = Lysine is chemically modified through conjugation of the epsilon-amino group of the Lysine side chain with (gamma-Glu)2-CO-(CH2)16-CO2H; SITE 20: note = 2-Am) [Example 771]	0.232	44.2	4.38	665	5.05	955	–	–	–
YXQGTFTSDFSQXLDKKAQXAFIEYLLAGGPSSGAPPPEGS (synthetic construct; SITE 2: note = 2-Aminoisobutyric Acid; SITE 13: note = alpha-methyl-leucine; SITE 17: note = Lysine is chemically modified through conjugation of the epsilon-amino group of the Lysine side chain with (2-[2-(2-Amino-ethoxy)-ethoxy]-acetyl)-(gamma-Glu)-CO-(CH2) 16-CO2H; SITE 20: n) [Example 772]	0.115	21.6	1.38	206	15.9	1880	–	–	–
YXQGTFTSDFSQXLDKKAQXAFIEYLLAGGPSSGEPPPSGS (synthetic construct; SITE 2: note = 2-Aminoisobutyric Acid; SITE 13: note = alpha-methyl-leucine; SITE 17: note = Lysine is chemically modified through conjugation of the epsilon-amino group of the Lysine side chain with (2-[2-(2-Amino-ethoxy)-ethoxy]-acetyl)-(gamma-Glu)-CO-(CH2) 16-CO2H; SITE 20: n) [Example 773]	0.0974	26.3	1.97	241	15.3	2260	–	–	–
YXQGTFTSDFSQXLDKKAQXAFIEWLLEGGPSSGAPPPEGS (synthetic construct; SITE 2: note = 2-Aminoisobutyric Acid; SITE 13: note = alpha-methyl-leucine; SITE 17: note = Lysine is chemically modified through conjugation of the epsilon-amino group of the Lysine side chain with (2-[2-(2-Amino-ethoxy)-ethoxy]-acetyl)-(gamma-Glu)-CO-(CH2) 16-CO2H; SITE 20: n) [Example 774]	0.128	32.8	1.89	404	13.7	2330	–	–	–
YXQGTFTSDFSQXLDKKAQXAFIEYLLEAGPSSGAPPPSGS (synthetic construct; SITE 2: note = 2-Aminoisobutyric Acid; SITE 13: note = alpha-methyl-leucine; SITE 17: note = Lysine is chemically modified through conjugation of the epsilon-amino group of the Lysine side chain with (2-[2-(2-Amino-ethoxy)-ethoxy]-acetyl)-(gamma-Glu)-CO-(CH2) 16-CO2H; SITE 20: n) [Example 775]	0.105	25.8	0.993	202	4.36	724	–	–	–
YXQGTFTSDFSQXLDKKAQXAFIEYLLEAGPSSGAPPPSGX (synthetic construct; SITE 2: note = 2-Aminoisobutyric Acid; SITE 13: note = alpha-methyl-leucine; SITE 17: note = Lysine is chemically modified through conjugation of the epsilon-amino group of the Lysine side chain with (2-[2-(2-Amino-ethoxy)-ethoxy]-acetyl)-(gamma-Glu)-CO-(CH2) 16-CO2H; SITE 20: n) [Example 777]	0.113	22.2	0.913	231	3.89	1320	–	–	–
